Measured values from patent US20230312721A1 (published 2023).
Positions count from the first letter of the chain named.

T1: 4Ig human B7-H3 (human, UniProt Q5ZPR3 29-466, limits assumed)
T1 construct: Soluble analyte in SPR; also called 4Ig-B7H3; 4Ig B7H3
T1 sequence: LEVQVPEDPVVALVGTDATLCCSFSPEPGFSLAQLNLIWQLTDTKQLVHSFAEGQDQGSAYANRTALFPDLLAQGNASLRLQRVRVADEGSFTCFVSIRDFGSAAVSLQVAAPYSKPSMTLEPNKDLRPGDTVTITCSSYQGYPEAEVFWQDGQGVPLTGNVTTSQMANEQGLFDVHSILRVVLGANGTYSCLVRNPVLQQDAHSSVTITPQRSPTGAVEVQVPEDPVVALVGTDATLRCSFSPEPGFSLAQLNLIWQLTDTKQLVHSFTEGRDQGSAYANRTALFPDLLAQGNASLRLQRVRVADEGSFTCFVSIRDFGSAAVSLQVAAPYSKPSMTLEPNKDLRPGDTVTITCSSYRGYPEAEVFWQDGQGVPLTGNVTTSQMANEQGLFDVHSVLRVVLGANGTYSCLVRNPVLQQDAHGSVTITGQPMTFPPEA

B1: chimeric anti-B7H3 IgG (Chimeric Heavy Chain (Parental) + Chimeric Light chain (parental)) (antibody, V domains shown)
VH: QVQLQQSGAELVKPGASVKLSCKASGYTFTNYDINWVRQRPEQGLEWIGWIFPGDGSTQYNEKFKGKATLTTDTSSSTAYMQLSRLTSEDSAVYFCARQTTATWFAYWGQGTLVTVSA
VL: DIVMTQSPATLSVTPGDRVSLSCRASQSISDYLHWYQQKSHESPRLLIKYASQSISGIPSRFSGSGSGSDFTLSINSVEPEDVGVYYCQNGHSFPLTFGAGTKLELKR
notes: Chimeric IgG1 with murine 8H9 variable domains, expressed in HEK293; also called Chimeric IgG; parental chimeric antibody
B2: L3H1 (antibody, human IgG1, kappa, V domains shown)
VH: QVQLVQSGAEVKKPGASVKVSCKASGYTFTNYDINWVRQATGQGLEWIGWIFPGDGSTQYNEKFQGRVTLTTNTSISTAYMELSSLRSEDTAVYYCARQTTATWFAYWGQGTLVTVSS
VL: EIVMTQSPDFQSVTPKEKVTLTCRASQSISDYLHWYQQKPDQSPKLLIKYASQSISGVPSRFSGSGSGSDFTLTINSLEAEDAGVYYCQNGHSFPLTFGQGTKLEIKR
notes: Humanized IgG1, HEK293; chains tied by the L/H names; also called YB8 L3 + YB8 H1
B3: L4H6 (antibody, human IgG1, kappa, V domains shown)
VH: B2 VH with V5Q, V20L, N61A, E62Q, V68A, Y95F
VL: B2 VL with V58I, S69T, L78V
notes: Humanized IgG1, HEK293; chains tied by the L/H names; also called YB8 L4 + YB8 H6
B4: L1H6 (antibody, human IgG1, kappa)
heavy: not shown
light: EIVLTQSPDFQSVTPKEKVTLTCRASQSISDYLHWYQQKPDQSPKLLIKYASQSISGVPSRFSGSGSGSDFTLTINSLEAEDAATYYCQNGHSFPLTFGQGTKLEIKRTVAAPSVFIFPPSDEQLKSGTASVVCLLNNFYPREAKVQWKVDNALQSGNSQESVTEQDSKDSTYSLSSTLTLSKADYEKHKVYACEVTHQGLSSPVTKSFNRGEC
notes: Humanized IgG1, HEK293; chains tied by the L/H names; also called YB8 L1 + YB8 H6
B5: L2H3 (antibody, human IgG1, kappa)
heavy: not shown
light: B4 light with L4M, L21I
notes: Humanized IgG1, HEK293; chains tied by the L/H names; Lead candidate; also called YB8 L2 + YB8 H3
B6: L3H5 (antibody, human IgG1, kappa, V domains shown)
VH: B2 VH with I48M, L70M
VL: B2 VL
notes: Humanized IgG1, HEK293; chains tied by the L/H names; also called YB8 L3 + YB8 H5
B7: L1H4 (antibody, human IgG1, kappa)
heavy: not shown
light: B4 light
notes: Humanized IgG1, HEK293; chains tied by the L/H names; also called YB8 L1 + YB8 H4
B8: L1H5 (antibody, human IgG1, kappa)
heavy: not shown
light: B4 light
notes: Humanized IgG1, HEK293; chains tied by the L/H names; also called YB8 L1 + YB8 H5
B9: L2H4 (antibody, human IgG1, kappa)
heavy: not shown
light: B4 light with L4M, L21I
notes: Humanized IgG1, HEK293; chains tied by the L/H names; Lead candidate; also called YB8 L2 + YB8 H4
B10: L2H2 (antibody, human IgG1, kappa)
heavy: not shown
light: B4 light with L4M, L21I
notes: Humanized IgG1, HEK293; chains tied by the L/H names; also called YB8 L2 + YB8 H2
B11: L4H4 (antibody, human IgG1, kappa, V domains shown)
VH: B2 VH with L70M, Y95F
VL: B2 VL with V58I, S69T, L78V
notes: Humanized IgG1, HEK293; chains tied by the L/H names; also called YB8 L4 + YB8 H4
B12: L3H3 (antibody, human IgG1, kappa, V domains shown)
VH: B2 VH with I48M, Q65K, T72R, Y95F
VL: B2 VL
notes: Humanized IgG1, HEK293; chains tied by the L/H names; also called YB8 L3 + YB8 H3
B13: L4H1 (antibody, human IgG1, kappa, V domains shown)
VH: B2 VH
VL: B2 VL with V58I, S69T, L78V
notes: Humanized IgG1, HEK293; chains tied by the L/H names; also called YB8 L4 + YB8 H1
B14: L4H5 (antibody, human IgG1, kappa, V domains shown)
VH: B2 VH with I48M, L70M
VL: B2 VL with V58I, S69T, L78V
notes: Humanized IgG1, HEK293; chains tied by the L/H names; also called YB8 L4 + YB8 H5
B15: L2H5 (antibody, human IgG1, kappa)
heavy: not shown
light: B4 light with L4M, L21I
notes: chains tied by the L/H names; Selected lead; also called YB8-L2H5; YB8 L2 + YB8 H5
B16: L1H1 (antibody, human IgG1, kappa)
heavy: not shown
light: B4 light
notes: Humanized IgG1, HEK293; chains tied by the L/H names; also called YB8 L1 + YB8 H1
B17: L2H6 (antibody, human IgG1, kappa)
heavy: not shown
light: B4 light with L4M, L21I
notes: Humanized IgG1, HEK293; chains tied by the L/H names; also called YB8 L2 + YB8 H6
B18: L4H2 (antibody, human IgG1, kappa, V domains shown)
VH: B2 VH with V5Q, Q65K, V68A, T72R
VL: B2 VL with V58I, S69T, L78V
notes: Humanized IgG1, HEK293; chains tied by the L/H names; also called YB8 L4 + YB8 H2
B19: L3H6 (antibody, human IgG1, kappa, V domains shown)
VH: B2 VH with V5Q, V20L, N61A, E62Q, V68A, Y95F
VL: B2 VL
notes: Humanized IgG1, HEK293; chains tied by the L/H names; also called YB8 L3 + YB8 H6
B20: L1H2 (antibody, human IgG1, kappa)
heavy: not shown
light: B4 light
notes: Humanized IgG1, HEK293; chains tied by the L/H names; also called YB8 L1 + YB8 H2
B21: L3H2 (antibody, human IgG1, kappa, V domains shown)
VH: B2 VH with V5Q, Q65K, V68A, T72R
VL: B2 VL
notes: Humanized IgG1, HEK293; chains tied by the L/H names; also called YB8 L3 + YB8 H2
B22: L4H3 (antibody, human IgG1, kappa, V domains shown)
VH: B2 VH with I48M, Q65K, T72R, Y95F
VL: B2 VL with V58I, S69T, L78V
notes: Humanized IgG1, HEK293; chains tied by the L/H names; also called YB8 L4 + YB8 H3
B23: L1H3 (antibody, human IgG1, kappa)
heavy: not shown
light: B4 light
notes: Humanized IgG1, HEK293; chains tied by the L/H names; also called YB8 L1 + YB8 H3
B24: L2H1 (antibody, human IgG1, kappa)
heavy: not shown
light: B4 light with L4M, L21I
notes: Humanized IgG1, HEK293; chains tied by the L/H names; also called YB8 L2 + YB8 H1
B25: L3H4 (antibody, human IgG1, kappa, V domains shown)
VH: B2 VH with L70M, Y95F
VL: B2 VL
notes: Humanized IgG1, HEK293; chains tied by the L/H names; also called YB8 L3 + YB8 H4

target: T1, 4Ig human B7-H3; assay: SPR, Carterra LSA; antibody captured on anti-human Fc lawn, 4Ig human B7-H3 as analyte
Description: Chimeric and humanized antibodies were generated using CDR grafting methods using closely homologous human germline sequences. Six different humanized VH and four humanized VL sequences were combined to generate 24 different humanized IgG1 antibodies. The antibodies were expressed in HEK293 cells and purified using Protein A resin. Antibodies were buffer exchanged into PBS and quantified by OD280 and titer was calculated. Sample purity and aggregation status was determined by analytical Size Exclusion Chromatography (SEC-HPLC), which separates molecules based on molecular mass and hydrodynamic volume. Area % of each peak is calculated based on total area of the peaks. Peak symmetry is calculated to determine the peak fronting (<1) or tailing (>1). A column of 300A pore size was used for detection at 280 nm and PBS as the running buffer. Surface plasmon resonance studies to assess binding affinities were carried out on a Carterra LSA instrument. An anti-human Fc antibody “lawn” was prepared on a HC30M chip by amine coupling. The chip was activated with equal volume of 100 mM MES pH 5.5, 100 mM S-NHS and 400 mM EDC. The anti-human IgG Fc antibody was immobilized. The chip was deactivated with 1 M ethanolamine pH 8.5. Antibodies were diluted and printed onto the anti-human Fc lawn. An 8-point series of 4Ig human B7-H3 was prepared.
The characterization data, including expression titers (mg of purified protein per L of culture), purity (% monomer peak by analytical SEC-HPLC) and affinity measurement by SPR (ka, kd and KD) are summarized in Table 1 and FIG. 1-4.

| Kd | koff | kon | Binder |
| --- | --- | --- | --- |
| 10 nM | 0.00079 s⁻¹ | 78000 M⁻¹ s⁻¹ | B1 |
| 10 nM | 0.00034 s⁻¹ | 34000 M⁻¹ s⁻¹ | B2 |
| 9.6 nM | 0.00042 s⁻¹ | 43000 M⁻¹ s⁻¹ | B3 |
| 25 nM | 0.00066 s⁻¹ | 26000 M⁻¹ s⁻¹ | B4 |
| 9.9 nM | 0.00034 s⁻¹ | 34000 M⁻¹ s⁻¹ | B5 |
| 9.2 nM | 0.00035 s⁻¹ | 38000 M⁻¹ s⁻¹ | B6 |
| 9.5 nM | 0.00041 s⁻¹ | 43000 M⁻¹ s⁻¹ | B7 |
| 11 nM | 0.00042 s⁻¹ | 39000 M⁻¹ s⁻¹ | B8 |
| 8.2 nM | 0.00036 s⁻¹ | 44000 M⁻¹ s⁻¹ | B9 |
| 11 nM | 0.00037 s⁻¹ | 33000 M⁻¹ s⁻¹ | B10 |
| 11 nM | 0.00036 s⁻¹ | 34000 M⁻¹ s⁻¹ | B11 |
| 9.7 nM | 0.00032 s⁻¹ | 32000 M⁻¹ s⁻¹ | B12 |
| 23 nM | 0.00055 s⁻¹ | 24000 M⁻¹ s⁻¹ | B13 |
| 9.3 nM | 0.0004 s⁻¹ | 43000 M⁻¹ s⁻¹ | B14 |
| 9.4 nM | 0.0004 s⁻¹ | 42000 M⁻¹ s⁻¹ | B15 |
| 15 nM | 0.00043 s⁻¹ | 31000 M⁻¹ s⁻¹ | B16 |
| 24 nM | 0.00051 s⁻¹ | 21000 M⁻¹ s⁻¹ | B17 |
| 11 nM | 0.00039 s⁻¹ | 36000 M⁻¹ s⁻¹ | B18 |
| 20 nM | 0.0005 s⁻¹ | 25000 M⁻¹ s⁻¹ | B19 |
| 14 nM | 0.00041 s⁻¹ | 29000 M⁻¹ s⁻¹ | B20 |
| 11 nM | 0.00035 s⁻¹ | 32000 M⁻¹ s⁻¹ | B21 |
| 13 nM | 0.00039 s⁻¹ | 31000 M⁻¹ s⁻¹ | B22 |
| 8.1 nM | 0.00035 s⁻¹ | 43000 M⁻¹ s⁻¹ | B23 |
| 11 nM | 0.00041 s⁻¹ | 39000 M⁻¹ s⁻¹ | B24 |
| 8.4 nM | 0.00033 s⁻¹ | 40000 M⁻¹ s⁻¹ | B25 |
